Legend:
huLTBP1 proTGFβ1 = huLTBP1 proTGFβ1 (Homo sapiens, UniProt P01137+Q14766); assay: SPR (Biacore 8K) monovalent binding kinetics of Fabs, biotinylated antigen captured; set-up: biotin (complex biotinylated); conditions: for KD of Fab fragments / Binding of human Fabs for huLTBP1 proTGFβ1 and huLTBP3 proTGFβ1 (FIGS. 23, 24): SPR; for KD of Fab fragments: antigen not given; for Monovalent affinities (FIGS. 23, 24): figure legends
Procedure, shortened: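 Biotinylated proTGFβ1 complexes (10 nM) captured on Biotin CAPture chip; Fabs injected at 10, 5, 2.5, 1.25, 0.625 nM (0 nM reference), 120 s contact, 900 s dissociation, multi-cycle with regeneration. HBS-EP+ pH 7.4; global 1:1 fit for ka, kd, KD.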

huLRRC33 proTGFβ1 = huLRRC33 proTGFβ1 (Homo sapiens, UniProt P01137); assay: Octet binding of immobilized cycle 2 antibodies; set-up: modified human kappa light chain signal peptide (N); Histidine tag (C); conditions: antibody immobilized (loading sample)
Chain of huLRRC33 proTGFβ1 (P01137 30-390): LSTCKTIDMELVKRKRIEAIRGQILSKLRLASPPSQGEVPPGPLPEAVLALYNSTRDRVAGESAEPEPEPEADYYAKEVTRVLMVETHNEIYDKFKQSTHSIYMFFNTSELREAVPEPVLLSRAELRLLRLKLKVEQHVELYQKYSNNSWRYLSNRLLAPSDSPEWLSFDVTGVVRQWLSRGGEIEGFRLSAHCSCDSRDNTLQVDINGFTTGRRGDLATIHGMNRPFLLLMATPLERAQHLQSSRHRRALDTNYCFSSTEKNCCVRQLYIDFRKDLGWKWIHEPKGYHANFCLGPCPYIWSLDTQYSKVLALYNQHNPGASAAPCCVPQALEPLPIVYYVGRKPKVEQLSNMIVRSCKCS
Chain of huLRRC33 proTGFβ1 (Q86YC3 with tags, fused parts or gaps partner limits assumed): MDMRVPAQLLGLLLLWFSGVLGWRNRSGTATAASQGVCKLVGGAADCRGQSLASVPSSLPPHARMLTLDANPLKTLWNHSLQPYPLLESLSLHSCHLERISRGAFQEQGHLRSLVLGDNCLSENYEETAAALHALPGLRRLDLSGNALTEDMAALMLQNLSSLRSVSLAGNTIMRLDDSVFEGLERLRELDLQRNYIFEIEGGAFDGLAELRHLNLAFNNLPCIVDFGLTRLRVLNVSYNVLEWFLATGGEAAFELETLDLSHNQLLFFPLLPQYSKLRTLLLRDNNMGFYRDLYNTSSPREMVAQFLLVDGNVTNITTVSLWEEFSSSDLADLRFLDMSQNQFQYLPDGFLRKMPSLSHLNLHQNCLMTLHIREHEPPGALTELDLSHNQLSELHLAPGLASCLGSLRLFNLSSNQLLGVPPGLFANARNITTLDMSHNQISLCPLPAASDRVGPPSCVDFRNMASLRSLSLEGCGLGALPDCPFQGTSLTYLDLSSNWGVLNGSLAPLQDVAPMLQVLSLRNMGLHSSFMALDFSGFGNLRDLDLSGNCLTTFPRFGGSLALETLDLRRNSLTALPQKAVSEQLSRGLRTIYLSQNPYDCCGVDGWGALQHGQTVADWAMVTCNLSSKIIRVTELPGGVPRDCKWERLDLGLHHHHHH
Text: A modified proTGFβ1 complex (proTGFβ1 C4S) in which the cysteine residue at position 4 of the pro-domain has been substituted with a serine residue (described in WO 2014/182676) was used to assess antibody binding to C4S antigen by Octet. Cycle 2 antibodies were immobilized and tested against 3 antigens. As shown in the Tables below, robust antibody binding to LTBP-1 proTGFβ1 antigen (Table 23) and proTGFβ1C4S antigen was observed (Table 24), while binding to LRRC33 proTGFβ1 antigen was not observed (Table 25).

Chain of huLTBP1 proTGFβ1 (P01137 30-390): as the sequence (P01137 30-390) above
Chain of huLTBP1 proTGFβ1 (Q14766 347-1721 limits assumed): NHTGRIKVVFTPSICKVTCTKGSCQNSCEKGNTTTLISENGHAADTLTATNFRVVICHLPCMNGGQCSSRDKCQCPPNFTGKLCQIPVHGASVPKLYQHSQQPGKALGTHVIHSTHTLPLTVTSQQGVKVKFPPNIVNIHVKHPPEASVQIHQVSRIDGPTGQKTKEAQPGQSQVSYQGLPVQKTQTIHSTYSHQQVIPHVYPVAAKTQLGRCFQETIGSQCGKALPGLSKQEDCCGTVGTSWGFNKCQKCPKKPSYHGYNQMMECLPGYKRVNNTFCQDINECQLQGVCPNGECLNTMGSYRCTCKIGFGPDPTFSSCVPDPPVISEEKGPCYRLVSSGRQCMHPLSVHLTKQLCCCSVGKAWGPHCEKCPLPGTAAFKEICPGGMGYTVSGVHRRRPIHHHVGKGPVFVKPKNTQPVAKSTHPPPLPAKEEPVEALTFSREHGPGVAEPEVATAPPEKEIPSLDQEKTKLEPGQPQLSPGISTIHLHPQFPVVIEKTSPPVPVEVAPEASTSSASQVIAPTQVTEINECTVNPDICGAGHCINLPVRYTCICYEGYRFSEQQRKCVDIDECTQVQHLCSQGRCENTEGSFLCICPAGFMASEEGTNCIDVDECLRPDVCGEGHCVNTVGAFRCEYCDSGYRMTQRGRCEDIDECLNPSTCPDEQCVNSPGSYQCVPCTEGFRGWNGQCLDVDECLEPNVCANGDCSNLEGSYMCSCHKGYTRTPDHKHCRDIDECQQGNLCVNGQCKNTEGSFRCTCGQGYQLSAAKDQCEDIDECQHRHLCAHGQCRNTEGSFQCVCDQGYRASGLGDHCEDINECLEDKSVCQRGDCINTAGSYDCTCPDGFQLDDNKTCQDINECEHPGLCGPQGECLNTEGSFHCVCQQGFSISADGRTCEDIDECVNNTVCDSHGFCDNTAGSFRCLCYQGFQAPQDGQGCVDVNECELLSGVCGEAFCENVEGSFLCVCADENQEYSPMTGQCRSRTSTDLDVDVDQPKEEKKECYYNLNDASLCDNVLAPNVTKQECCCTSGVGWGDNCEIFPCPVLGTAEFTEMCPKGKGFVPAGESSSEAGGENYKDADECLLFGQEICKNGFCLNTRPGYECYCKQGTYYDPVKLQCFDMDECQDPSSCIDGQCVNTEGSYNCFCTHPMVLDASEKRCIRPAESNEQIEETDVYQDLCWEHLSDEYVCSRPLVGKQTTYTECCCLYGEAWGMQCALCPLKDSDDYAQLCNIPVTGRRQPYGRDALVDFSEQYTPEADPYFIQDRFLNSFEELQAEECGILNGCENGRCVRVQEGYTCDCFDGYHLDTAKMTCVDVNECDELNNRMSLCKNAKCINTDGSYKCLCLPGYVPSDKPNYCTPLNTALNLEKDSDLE

Molecule	KD of Fab fragments (huLTBP1 proTGFβ1)	Binding of human Fabs for huLTBP1 proTGFβ1 and huLTBP3 proTGFβ1 (FIGS. 23, 24) (huLTBP1 proTGFβ1)	Monovalent affinities (FIGS. 23, 24) (huLTBP1 proTGFβ1)	Response, binding to human LRRC33 proTGFb1 (huLRRC33 proTGFβ1) [nm]
SR-AB42: cycle 3 antibody, lineage SR-AB23; CDRs SEQ ID NO: 166-171; HCVR SEQ ID NO: 318, LCVR SEQ ID NO: 319 (antibody, V domains shown) VH: QVQLVESGGGVVQPGRSLRLSCAASGFTFRSYVMHWVRQAPGKGLEWVAVISHEGSLKYYADSVKGRFTISRDNSKNTLYLQMNSLRAEDTAVYYCARPRIAARRGGFGYWGQGTLVTVSS VL: NFMLTQPHSVSESPGKTVTISCTRSSGNIDNNYVQWYQQRPGSSPTTVIYEDNQRPSGVPDRFSGSIDSSSNSASLTISGLKTEDEADYYCQSYDYDTQGVVFGGGTKLTVL	sub-nanomolar	context-selective binding	picomolar monovalent affinities	–
SR-AB23: second-round (CDR-H3 mutagenesis) antibody, lineage SR-AB14; CDRs SEQ ID NO: 116-121 (antibody, V domains shown) VH: QVQLVESGGGVVQPGRSLRLSCAASGFTFRSYVMHWVRQAPGKGLEWVAVISHEGSLKYYADSVKGRFTISRDNSKNTLYLQMNSLRAEDTAVYYCARPRIAARRGGFGYWGQGTLVTVSS VL: NFMLTQPHSVSESPGKTVTISCTRSSGNIDNNYVQWYQQRPGSSPTTVIYEDNQRPSGVPDRFSGSIDSSSNSASLTISGLKTEDEADYYCQSYDSDNQGVVFGGGTKLTVL	–	–	–	0.0233
SR-AB22: second-round (CDR-H3 mutagenesis) antibody, lineage SR-AB14; CDRs SEQ ID NO: 108-113 (antibody, V domains shown) VH: QVQLVESGGGVVQPGRSLRLSCAASGFTFRSYVMHWVRQAPGKGLEWVAVISHEGSLKYYADSVKGRFTISRDNSKNTLYLQMNSLRAEDTAVYYCAVPRIAARRGGFGYWGQGTLVTVSS VL: NFMLTQPHSVSESPGKTVTISCTRSSGNIDNNYVQWYQQRPGSSPTTVIYEDNQRPSGVPDRFSGSIDSSSNSASLTISGLKTEDEADYYCQSYDSDNQGVVFGGGTKLTVL	–	–	–	0.1329
SR-AB63: cycle 3 antibody, lineage SR-AB26; CDRs SEQ ID NO: 292-297; HCVR SEQ ID NO: 360, LCVR SEQ ID NO: 361 (antibody, V domains shown) VH: QLQLQESGPGLVKPSETLSLTCTVSGGSIRSSSYYWGWIRQPPGKGLEWIGSISYSATTYYNPSLKSRVTISVDTSKNQFSLKLSSVTAADTAVYYCAGDPSYDSIAGMQVWGQGTTVTVSS VL: DIQLTQSPSSLSASVGDRVTITCRASQSISSYLNWYQQKPGKAPKLLIYAASNLQSGVPSRFSGSGSGTDFTLTISSLQPEDFATYYCQQSFDWPLTFGGGTKVEIK	sub-nanomolar	context-selective binding	picomolar monovalent affinities	–
